Where “and” joins values, the source holds several entries; their conditions need not be identical. Equal entries are not always repeated.
B1: human anti-RSV G monoclonal antibody 3G12 (antibody, V domains shown)
VH: QLQLQESGPGLVKPSETLSLTCTVSGGSISSSNYYWGWIRQPPGKGLEWIASIHDSGSIYYNPSLRSRVTISVDTSKNQFSLKLSSVTAADTAVYYCARHLVWFGELRNNWFDPWGQGTLVTVAS
VL: EIVMTQSPATLSVSPGERATLSCRASQSVNSNLAWYQHKPGQAPRLLIYGASTRATGIPARFSGSGSGTDFTLTISSLQSEDFAVYYCQQYNNWPLFGPGTKVDLK
notes: heavy chain of human MAb 3G12; light chain of human MAb 3G12; Whole IgG, captured by anti-human IgG Fc biosensors; also called MAb 3G12
B2: human anti-RSV G monoclonal antibody 2D10 (antibody, V domains shown)
VH: QVQLVQSGPEVKKPGASVRLSCKASGYVFTNYGVSWVRQAPGQGLEWMGWSSPYNGNTYYAQKLKARVTMTTDTSTNTAYMELRSLRSDDTAVYYCGRDMLGVVQAVAGPFDSWGQGTLVTVSS
VL: DTPMTQSPSSVSASVGDRVTISCRASQGISNSLAWYQQKLGKAPQLLIYAASSLQSGVPSRFSGSGSGTDFTLTISSLQPEDFATYYCQQTNTFPFTFGPGTKVEVR
notes: heavy-chain variable region of human MAb 2D10; human IgG1 heavy-chain constant region as in the pCMVR VRC01 heavy-chain vector (AIDS Reagent Program); light-chain variable region of human MAb 2D10; light-chain constant region of the pCMVR VRC01 light-chain vector; IgG1; variable regions of 2D10 put in place of those of antibody VRC01 in the pCMVR VRC01 vectors; also called MAb 2D10
B3: human anti-RSV G monoclonal antibody 3D3 (antibody, V domains shown)
VH: EEQLVESGGGLVQPGRSLRLSCVGSGLRFEEHAMHWVRQAPGRGLEWVSGISWNSGSVGYADSVKGRFTTSRDNAKDILFLEMNTLRSEDTALYFCAIMVATTKNDFHYYKDVWGKGTTVTVSS
VL: QIVLTQSPATLSLSPGERATLSCRASQSVSNHLAWYQQKPGQAPRLLIYETSNRATGIPPRFSGSGSGTDFTLTISSLEPEDFAVYYCQQRNNWYTFGQGTKLEIK
notes: heavy chain of human MAb 3D3; light chain of human MAb 3D3; Whole IgG, captured by anti-human IgG Fc biosensors; also called MAb 3D3

What was measured:
Experiment in all cases: BLI; Octet RED384; MAb (1 µg/mL) captured on anti-human IgG Fc (AHC) biosensors; RSV G^ecto proteins in solution, 40 nM 2-fold serially diluted to 0.63 nM (higher starting concentrations for CX4C); PBS pH 7.4, 0.05% Tween 20, 1% BSA; association 300 s, dissociation 600 s; global 1:1 fit; in duplicate
[1] = biological target: human anti-RSV G monoclonal antibody 2D10 (human)
[2] = biological target: human anti-RSV G monoclonal antibody 3D3 (human)
[3] = biological target: human anti-RSV G monoclonal antibody 3G12 (human)
[4] = biological target: T1, RSV G ectodomain wild-type protein (RSV strain A2, residues 64 to 298) (Human respiratory syncytial virus A, …, UniProt P03423); conditions: both partners purified
T1 construct: glycosylated, runs at about 90 kDa on SDS-PAGE; also called RSV G^ecto WT; wild-type RSV G

Row | Molecule | Kd [1] | koff [1] | kon [1] | Kd [2] | koff [2] | kon [2] | Kd [3] | koff [3] | kon [3] | Kd [4] | koff [4] | kon [4]
1 | RSV G ectodomain S177Q mutant protein (residues 64 to 298) (from UniProt P03423 64-298) (domain or fragment) | 0.605 nM and 0.485 nM | 0.000225 s⁻¹ and 0.00015 s⁻¹ | 371000 M⁻¹ s⁻¹ and 310000 M⁻¹ s⁻¹ | 0.538 nM and 0.264 nM | 0.000199 s⁻¹ and 0.000109 s⁻¹ | 369000 M⁻¹ s⁻¹ and 414000 M⁻¹ s⁻¹ | 1.88 nM and 2.28 nM | 0.000447 s⁻¹ and 0.000528 s⁻¹ | 238000 M⁻¹ s⁻¹ and 232000 M⁻¹ s⁻¹ |  |  | 
2 | RSV G ectodomain S177R mutant protein (residues 64 to 298) (from UniProt P03423 64-298) (domain or fragment) | < 0.001 nM | < 1e-07 s⁻¹ | 318000 M⁻¹ s⁻¹ and 253000 M⁻¹ s⁻¹ | 0.422 nM and 0.57 nM | 0.000104 s⁻¹ and 0.000151 s⁻¹ | 247000 M⁻¹ s⁻¹ and 265000 M⁻¹ s⁻¹ | 4.34 nM and 4.6 nM | 0.000581 s⁻¹ and 0.000672 s⁻¹ | 134000 M⁻¹ s⁻¹ and 146000 M⁻¹ s⁻¹ |  |  | 
3 | B1 |  |  |  |  |  |  |  |  |  | 0.26 nM and 0.262 nM | 6.55e-05 s⁻¹ and 5.19e-05 s⁻¹ | 252000 M⁻¹ s⁻¹ and 198000 M⁻¹ s⁻¹
4 | B2 |  |  |  |  |  |  |  |  |  | < 0.001 nM | < 1e-07 s⁻¹ | 370000 M⁻¹ s⁻¹ and 383000 M⁻¹ s⁻¹
5 | B3 |  |  |  |  |  |  |  |  |  | < 0.001 nM | < 1e-07 s⁻¹ | 426000 M⁻¹ s⁻¹ and 431000 M⁻¹ s⁻¹
